Experimental data reported in PMC10786891, “Massively parallel profiling of RNA-targeting CRISPR-Cas13d”.

T1: EsCas13d, nuclease-dead (Eubacterium siraeum, UniProt B0MS50, R295A;H300A;R849A;H854A)
T1 sequence: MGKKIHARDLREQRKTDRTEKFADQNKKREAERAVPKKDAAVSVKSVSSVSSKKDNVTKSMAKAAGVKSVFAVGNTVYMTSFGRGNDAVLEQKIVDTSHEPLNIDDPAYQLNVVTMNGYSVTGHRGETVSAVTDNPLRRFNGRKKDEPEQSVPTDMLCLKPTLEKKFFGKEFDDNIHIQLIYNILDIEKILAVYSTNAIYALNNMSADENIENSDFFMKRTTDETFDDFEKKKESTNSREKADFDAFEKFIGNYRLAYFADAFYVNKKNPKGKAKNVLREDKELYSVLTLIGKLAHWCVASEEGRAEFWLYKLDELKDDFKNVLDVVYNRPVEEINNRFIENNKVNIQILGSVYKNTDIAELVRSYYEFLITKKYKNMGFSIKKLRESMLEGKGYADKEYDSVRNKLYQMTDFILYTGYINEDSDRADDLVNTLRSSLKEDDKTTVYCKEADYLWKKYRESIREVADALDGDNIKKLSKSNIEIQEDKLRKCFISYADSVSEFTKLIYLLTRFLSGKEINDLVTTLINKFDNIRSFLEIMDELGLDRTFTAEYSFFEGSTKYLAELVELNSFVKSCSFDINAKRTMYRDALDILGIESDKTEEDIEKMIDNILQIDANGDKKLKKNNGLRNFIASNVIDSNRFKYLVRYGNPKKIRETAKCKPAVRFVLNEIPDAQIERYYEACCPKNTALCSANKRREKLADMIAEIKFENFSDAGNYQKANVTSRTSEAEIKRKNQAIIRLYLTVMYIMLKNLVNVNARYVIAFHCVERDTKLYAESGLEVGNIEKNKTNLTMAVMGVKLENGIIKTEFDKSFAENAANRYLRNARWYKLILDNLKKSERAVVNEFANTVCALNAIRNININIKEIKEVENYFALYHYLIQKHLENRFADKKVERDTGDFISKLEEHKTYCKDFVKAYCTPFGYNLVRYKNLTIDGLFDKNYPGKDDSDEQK

B1: target 1 MT 5'PFS CAA 3'PFS UAG (mixed)
RNA 1: CACCCGUGCAAAAAUGCAGGGGUCUAAAACUGAGCGGAUAACCUCUCUAUGG
RNA 2: GGGAAUGGAUCCACAUCUACGAAUUCCAACCAUAGAGAGGUUAUCCGCUCAUAGAGAUCGGAAGAGCACACGU
B2: target 1 MT 5'PFS CAA 3'PFS UAA (mixed)
RNA 1: CACCCGUGCAAAAAUGCAGGGGUCUAAAACUGAGCGGAUAACCUCUCUAUGG
RNA 2: GGGAAUGGAUCCACAUCUACGAAUUCCAACCAUAGAGAGGUUAUCCGCUCAUAAAGAUCGGAAGAGCACACGU
B3: target 1 MT 5'PFS GUC 3'PFS UUG (mixed)
RNA 1: CACCCGUGCAAAAAUGCAGGGGUCUAAAACUGAGCGGAUAACCUCUCUAUGG
RNA 2: GGGAAUGGAUCCACAUCUACGAAUUCGUCCCAUAGAGAGGUUAUCCGCUCAUUGAGAUCGGAAGAGCACACGU
B4: target 1 U8A,A9U (mixed)
RNA 1: CACCCGUGCAAAAAUGCAGGGGUCUAAAACUGAGCGGAUAACCUCUCUAUGG
RNA 2: GGGAAUGGAUCCACAUCUACGAAUUCGUACCAUAGAGAGGUUUACCGCUCACCGAGAUCGGAAGAGCACACGU
B5: target 1 MT 5'PFS GCA 3'PFS CCG (mixed)
RNA 1: CACCCGUGCAAAAAUGCAGGGGUCUAAAACUGAGCGGAUAACCUCUCUAUGG
RNA 2: GGGAAUGGAUCCACAUCUACGAAUUCGCACCAUAGAGAGGUUAUCCGCUCACCGAGAUCGGAAGAGCACACGU
B6: target 1 MT 5'PFS UAG 3'PFS AUU (mixed)
RNA 1: CACCCGUGCAAAAAUGCAGGGGUCUAAAACUGAGCGGAUAACCUCUCUAUGG
RNA 2: GGGAAUGGAUCCACAUCUACGAAUUCUAGCCAUAGAGAGGUUAUCCGCUCAAUUAGAUCGGAAGAGCACACGU
B7: target 1 MT 5'PFS GUA 3'PFS GAA (mixed)
RNA 1: CACCCGUGCAAAAAUGCAGGGGUCUAAAACUGAGCGGAUAACCUCUCUAUGG
RNA 2: GGGAAUGGAUCCACAUCUACGAAUUCGUACCAUAGAGAGGUUAUCCGCUCAGAAAGAUCGGAAGAGCACACGU
B8: target 1 MT 5'PFS GUC 3'PFS UUC (mixed)
RNA 1: CACCCGUGCAAAAAUGCAGGGGUCUAAAACUGAGCGGAUAACCUCUCUAUGG
RNA 2: GGGAAUGGAUCCACAUCUACGAAUUCGUCCCAUAGAGAGGUUAUCCGCUCAUUCAGAUCGGAAGAGCACACGU
B9: target 1 MT 5'PFS GUA 3'PFS GAG (mixed)
RNA 1: CACCCGUGCAAAAAUGCAGGGGUCUAAAACUGAGCGGAUAACCUCUCUAUGG
RNA 2: GGGAAUGGAUCCACAUCUACGAAUUCGUACCAUAGAGAGGUUAUCCGCUCAGAGAGAUCGGAAGAGCACACGU
B10: target 1 MT 5'PFS GUA 3'PFS GAU (mixed)
RNA 1: CACCCGUGCAAAAAUGCAGGGGUCUAAAACUGAGCGGAUAACCUCUCUAUGG
RNA 2: GGGAAUGGAUCCACAUCUACGAAUUCGUACCAUAGAGAGGUUAUCCGCUCAGAUAGAUCGGAAGAGCACACGU
B11: target 1 MT 5'PFS GUA 3'PFS GAC (mixed)
RNA 1: CACCCGUGCAAAAAUGCAGGGGUCUAAAACUGAGCGGAUAACCUCUCUAUGG
RNA 2: GGGAAUGGAUCCACAUCUACGAAUUCGUACCAUAGAGAGGUUAUCCGCUCAGACAGAUCGGAAGAGCACACGU
B12: target 1 MT 5'PFS GGC 3'PFS CGA (mixed)
RNA 1: CACCCGUGCAAAAAUGCAGGGGUCUAAAACUGAGCGGAUAACCUCUCUAUGG
RNA 2: GGGAAUGGAUCCACAUCUACGAAUUCGGCCCAUAGAGAGGUUAUCCGCUCACGAAGAUCGGAAGAGCACACGU
B13: target 1 MT 5'PFS GGC 3'PFS CGC (mixed)
RNA 1: CACCCGUGCAAAAAUGCAGGGGUCUAAAACUGAGCGGAUAACCUCUCUAUGG
RNA 2: GGGAAUGGAUCCACAUCUACGAAUUCGGCCCAUAGAGAGGUUAUCCGCUCACGCAGAUCGGAAGAGCACACGU
B14: target 1 MT 5'PFS GUC 3'PFS AUU (mixed)
RNA 1: CACCCGUGCAAAAAUGCAGGGGUCUAAAACUGAGCGGAUAACCUCUCUAUGG
RNA 2: GGGAAUGGAUCCACAUCUACGAAUUCGUCCCAUAGAGAGGUUAUCCGCUCAAUUAGAUCGGAAGAGCACACGU
B15: target 1 MT 5'PFS GUC 3'PFS AUA (mixed)
RNA 1: CACCCGUGCAAAAAUGCAGGGGUCUAAAACUGAGCGGAUAACCUCUCUAUGG
RNA 2: GGGAAUGGAUCCACAUCUACGAAUUCGUCCCAUAGAGAGGUUAUCCGCUCAAUAAGAUCGGAAGAGCACACGU
B16: target 1 MT 5'PFS GCA 3'PFS ACG (mixed)
RNA 1: CACCCGUGCAAAAAUGCAGGGGUCUAAAACUGAGCGGAUAACCUCUCUAUGG
RNA 2: GGGAAUGGAUCCACAUCUACGAAUUCGCACCAUAGAGAGGUUAUCCGCUCAACGAGAUCGGAAGAGCACACGU
B17: target 1 U10G,A16U (mixed)
RNA 1: CACCCGUGCAAAAAUGCAGGGGUCUAAAACUGAGCGGAUAACCUCUCUAUGG
RNA 2: GGGAAUGGAUCCACAUCUACGAAUUCGUACCAUAGUGAGGUGAUCCGCUCACCGAGAUCGGAAGAGCACACGU
B18: target 1 MT 5'PFS CAA 3'PFS UAC (mixed)
RNA 1: CACCCGUGCAAAAAUGCAGGGGUCUAAAACUGAGCGGAUAACCUCUCUAUGG
RNA 2: GGGAAUGGAUCCACAUCUACGAAUUCCAACCAUAGAGAGGUUAUCCGCUCAUACAGAUCGGAAGAGCACACGU
B19: target 1 MT 5'PFS UAG 3'PFS AUC (mixed)
RNA 1: CACCCGUGCAAAAAUGCAGGGGUCUAAAACUGAGCGGAUAACCUCUCUAUGG
RNA 2: GGGAAUGGAUCCACAUCUACGAAUUCUAGCCAUAGAGAGGUUAUCCGCUCAAUCAGAUCGGAAGAGCACACGU
B20: target 1 MT 5'PFS GUC 3'PFS AUG (mixed)
RNA 1: CACCCGUGCAAAAAUGCAGGGGUCUAAAACUGAGCGGAUAACCUCUCUAUGG
RNA 2: GGGAAUGGAUCCACAUCUACGAAUUCGUCCCAUAGAGAGGUUAUCCGCUCAAUGAGAUCGGAAGAGCACACGU
B21: target 1 MT 5'PFS UAG 3'PFS AUA (mixed)
RNA 1: CACCCGUGCAAAAAUGCAGGGGUCUAAAACUGAGCGGAUAACCUCUCUAUGG
RNA 2: GGGAAUGGAUCCACAUCUACGAAUUCUAGCCAUAGAGAGGUUAUCCGCUCAAUAAGAUCGGAAGAGCACACGU
B22: target 1 MT 5'PFS GUC 3'PFS AUC (mixed)
RNA 1: CACCCGUGCAAAAAUGCAGGGGUCUAAAACUGAGCGGAUAACCUCUCUAUGG
RNA 2: GGGAAUGGAUCCACAUCUACGAAUUCGUCCCAUAGAGAGGUUAUCCGCUCAAUCAGAUCGGAAGAGCACACGU
B23: target 1 MT 5'PFS UAG 3'PFS AUG (mixed)
RNA 1: CACCCGUGCAAAAAUGCAGGGGUCUAAAACUGAGCGGAUAACCUCUCUAUGG
RNA 2: GGGAAUGGAUCCACAUCUACGAAUUCUAGCCAUAGAGAGGUUAUCCGCUCAAUGAGAUCGGAAGAGCACACGU
B24: target 1 MT 5'PFS UUU 3'PFS AGC (mixed)
RNA 1: CACCCGUGCAAAAAUGCAGGGGUCUAAAACUGAGCGGAUAACCUCUCUAUGG
RNA 2: GGGAAUGGAUCCACAUCUACGAAUUCUUUCCAUAGAGAGGUUAUCCGCUCAAGCAGAUCGGAAGAGCACACGU

biological target: T1, EsCas13d, nuclease-dead; assay: crRNA (strand 1, pre-loaded); Mg2+; 40 mM Tris-HCl pH 7.5, 150 mM NaCl, 6 mM MgCl2, 1 mM DTT, 0.1% Tween-20, 0.2 mg/ml BSA; 25 C; 10 min per concentration, then washed; settings: tags: His6-TwinStrep-SUMO cleaved; N-terminal SNAP kept (SNAP-Surface 488); label: 3' end held by stalled T7 RNA polymerase

Q: With B1 as the binder, how does the Kd read?
A: 17 ± 6.5 nM

Q: With B2 as the binder, how does the Kd read?
A: 18 ± 9 nM

Q: B3 was tested. Which Kd did it give?
A: 11.9 ± 1.75 nM

Q: With B4 as the binder, how does the Kd read?
A: 12.9 ± 0.8 nM

Q: How did the Kd turn out when B5 was run?
A: 18.5 ± 8 nM

Q: Which Kd does the source give for B6 here?
A: 31.6 ± 4.7 nM

Q: B7 was tested. Which Kd did it give?
A: 11.8 ± 1.3 nM

Q: For B8, which Kd is on record?
A: 19.1 ± 4.5 nM

Q: How did the Kd turn out when B9 was run?
A: 16.1 ± 2.3 nM

Q: With B10 as the binder, how does the Kd read?
A: 12.5 ± 1.35 nM

Q: How did the Kd turn out when B11 was run?
A: 14.3 ± 3.05 nM

Q: With B12 as the binder, how does the Kd read?
A: 22 ± 7 nM

Q: For B13, which Kd is on record?
A: 15.5 ± 4 nM

Q: Which Kd does the source give for B14 here?
A: 16.1 ± 2.15 nM

Q: How did the Kd turn out when B15 was run?
A: 26 ± 7 nM

Q: With B16 as the binder, how does the Kd read?
A: 19 ± 5.5 nM

Q: With B17 as the binder, how does the Kd read?
A: 58 ± 10 nM

Q: With B18 as the binder, how does the Kd read?
A: 7.65 ± 2.65 nM

Q: How did the Kd turn out when B19 was run?
A: 32 ± 9 nM

Q: B20 was tested. Which Kd did it give?
A: 24.5 ± 4 nM

Q: For B21, which Kd is on record?
A: 31.3 ± 4.95 nM

Q: With B22 as the binder, how does the Kd read?
A: 28.5 ± 11 nM

Q: How did the Kd turn out when B23 was run?
A: 46.5 ± 9 nM

Q: How did the Kd turn out when B24 was run?
A: 68 ± 27.5 nM
